Columns and labels:
Assay in all cases: cell-based or functional assay
[1] = target: HIV-1 Env of pseudovirus MGRM-G-027 (HIV-1)
[2] = target: HIV-1 Env of isolate MGRM-A-009 (clade A pseudovirus) (HIV-1)
[3] = target: HIV-1 Env of isolate MGRM-G-016 (subtype G) (HIV-1)
[4] = target: HIV-1 Env of isolate 92RW020 (clade A pseudovirus) (HIV-1)
[5] = target: HIV-1 Env of isolate JRCSF (Clade B) (HIV-1) (UniProt P20871)
[6] = target: HIV-1 Env of isolate MGRM-A-014 (clade A pseudovirus) (HIV-1)
[7] = target: HIV-1 Env of isolate 92UG031 (clade A pseudovirus) (HIV-1)
[8] = target: HIV-1 MGRM-AG-001 Env (pseudovirus) (HIV-1)
[9] = target: HIV-1 92RW020 envelope (Env) on pseudovirus (HIV-1)
[10] = target: HIV-1 envelope glycoprotein (Env) of isolate MGRM-C-025 (HIV-1)
[11] = target: HIV-1 Env of pseudovirus MGRM-F1-006 (clade F) (HIV-1)
[12] = target: HIV-1 Env of isolate MGRM-A-007 (clade A pseudovirus) (HIV-1)
[13] = target: HIV-1 MGRM-AE-002 Env (pseudovirus) (HIV-1)
[14] = target: HIV-1 Env of isolate MGRM-AE-001 (pseudovirus) (HIV-1)
[15] = target: HIV-1 Env of pseudovirus MGRM-G-024 (HIV-1)
[16] = target: HIV-1 Env of isolate MGRM-F1-021 (pseudovirus) (HIV-1)
aMLV envelope = target: aMLV envelope
[17] = target: HIV-1 envelope glycoprotein (Env) of isolate MGRM-Chronic-B-020, on pseudovirus (HIV-1)
[18] = target: HIV-1 envelope glycoprotein (Env) of isolate MG RM-A-004, subtype A (HIV-1)
[19] = target: HIV-1 envelope glycoprotein (Env) of isolate 92WR020, subtype A (HIV-1)
[20] = target: HIV-1 Env of isolate MGRM-AG-008 (pseudovirus) (HIV-1)
[21] = target: HIV-1 JR-CSF Env T394A (HIV-1 (isolate JR-CSF)) (UniProt P20871)
[22] = target: HIV-1 JR-CSF Env W395A (HIV-1 (isolate JR-CSF)) (UniProt P20871)
[23] = target: HIV-1 JR-CSF Env I415A (HIV-1 (isolate JR-CSF)) (UniProt P20871)
[24] = target: HIV-1 JR-CSF Env S393A (HIV-1 (isolate JR-CSF)) (UniProt P20871)
[25] = target: HIV-1 Env of isolate 98CN006 (HIV-1)
[26] = target: HIV-1 Env of pseudovirus isolate 92BR020 (clade B) (HIV-1)
[27] = target: HIV-1 Env of isolate MGRM-C-014 (subtype C), on pseudovirus (HIV-1)
[28] = target: HIV-1 Env of isolate MGRM-C-024 (subtype C), on pseudovirus (HIV-1)
[29] = target: HIV-1 Env of pseudovirus isolate MGRM-C-008 (clade C) (HIV-1)
[30] = target: HIV-1 Env of isolate MGRM-F1-006 (HIV-1)
[31] = target: HIV-1 Env of isolate MGRM-A-006 (pseudovirus) (HIV-1)
[32] = target: HIV-1 Env of isolate 92UG114 (pseudovirus) (HIV-1)
[33] = target: HIV-1 Env of isolate CMU02 (subtype AE) (HIV-1)
[34] = target: HIV-1 Env of isolate MGRM-A-003 (pseudovirus) (HIV-1)

Substance | IC50 (µg/mL), pseudovirus neutralization [3] [µg/mL] | IC50 (µg/mL), pseudovirus neutralization [16] [µg/mL] | IC50, pseudovirus neutralization (aMLV envelope) [mg/L] | IC50, pseudovirus neutralization [17] [mg/L] | IC50, pseudovirus neutralization [18] [mg/L] | IC50, pseudovirus neutralization [19] [mg/L] | IC50 (µg/mL), pseudovirus neutralization [20] [µg/mL] | Fold IC50 increase relative to wild-type (pseudovirus neutralization) [21] [fold] | Fold IC50 increase relative to wild-type (pseudovirus neutralization) [22] [fold] | Fold IC50 increase relative to wild-type (pseudovirus neutralization) [23] [fold] | Fold IC50 increase relative to wild-type (pseudovirus neutralization) [24] [fold] | IC50, pseudovirus neutralization [29] [mg/L] | IC50 (µg/mL), pseudovirus neutralization [30] [µg/mL] | IC50 (µg/mL), pseudovirus neutralization [31] [µg/mL] | IC50 (µg/mL), pseudovirus neutralization [32] [µg/mL] | IC50, pseudovirus neutralization [33] [mg/L] | IC50 (µg/mL), pseudovirus neutralization [34] [µg/mL] | other results
1496_C09 (PG9) (TCN-109) (antibody) | 1.36 | – | – | – | – | – | – | – | – | – | – | – | – | – | – | – | – | IC50 (µg/ml), pseudovirus neutralization [1]: 0.01 µg/mL; IC50 (µg/ml), pseudovirus neutralization [2]: 0.03 µg/mL; IC50 (µg/ml), pseudovirus neutralization [4]: 0.08 µg/mL; IC90 (neutralization of pseudovirus) [5]: < 0.0025 mg/L; Neutralization IC80 [5]: 0.0181 mg/L; Neutralization IC90 [5]: 0.0391 mg/L; Neutralization IC95 [5]: 0.0798 mg/L; neutralization IC50 [5]: 0.0048 mg/L; IC50 (µg/ml), pseudovirus neutralization [6]: 0.62 µg/mL; IC50 (µg/ml), pseudovirus neutralization [7]: 3.08 µg/mL; IC50 (µg/ml), pseudovirus neutralization [8]: 8.83 µg/mL; neutralization IC50 [9]: 0.0637 mg/L; IC50 (µg/ml), pseudovirus neutralization [10]: 0.17 µg/mL; IC50 [11]: 1.45 mg/L; IC50 (µg/ml), pseudovirus neutralization [12]: 0.37 µg/mL; IC50 (µg/ml), pseudovirus neutralization [13]: 0.04 µg/mL; IC50 (µg/mL), pseudovirus neutralization [14]: 20.6 µg/mL; IC50 (µg/ml), pseudovirus neutralization [15]: 0.07 µg/mL
4838_L06 (PGT-121) (antibody) | – | 0.099 | > 10 | 0.004 | > 50 | 0.004 | – | – | – | – | – | – | – | – | – | – | – | –
4858_P08 (PGT-123) (antibody) | – | 0.307 | > 10 | 0.005 | > 50 | 0.002 | 19.2 | 0.4 | 0.4 | 0.4 | 0.6 | – | – | – | – | – | – | –
4877_D15 (PGT-122) (antibody) | – | 2.3 | > 10 | 0.005 | > 50 | 0.009 | > 50 | – | – | – | – | – | – | – | – | – | – | –
4970_K22 (PGT-144) (antibody) | > 50 | – | – | – | – | – | – | – | – | – | – | – | – | – | – | – | – | IC50 (µg/mL), pseudovirus neutralization [25]: > 50 µg/mL; IC50, pseudovirus neutralization [26]: 44 mg/L; IC50 (µg/mL), single-round pseudovirus neutralization [14]: > 50 µg/mL; IC50, single-round pseudovirus neutralization [27]: > 50 mg/L; IC50, single-round pseudovirus neutralization [28]: 2.06 mg/L
4980_N08 (PGT-143) (antibody) | 7.6 | – | – | – | – | – | – | – | – | – | – | – | – | – | – | – | – | IC50 (µg/mL), pseudovirus neutralization [25]: > 50 µg/mL; IC50, pseudovirus neutralization [26]: 25.9 mg/L; IC50 (µg/mL), single-round pseudovirus neutralization [14]: > 50 µg/mL; IC50, single-round pseudovirus neutralization [27]: 8.81 mg/L; IC50, single-round pseudovirus neutralization [28]: 0.05 mg/L
4993_K13 (PGT-141) (antibody) | 4.69 | – | – | – | – | – | – | – | – | – | – | – | – | – | – | – | – | IC50 (µg/mL), pseudovirus neutralization [25]: > 50 µg/mL; IC50, pseudovirus neutralization [26]: 20.3 mg/L; IC50 (µg/mL), single-round pseudovirus neutralization [14]: > 50 µg/mL; IC50, single-round pseudovirus neutralization [27]: 11.8 mg/L; IC50, single-round pseudovirus neutralization [28]: 0.101 mg/L
4995_E20 (PGT-142) (antibody) | 8.17 | – | – | – | – | – | – | – | – | – | – | – | – | – | – | – | – | IC50 (µg/mL), pseudovirus neutralization [25]: > 50 µg/mL; IC50, pseudovirus neutralization [26]: 15.1 mg/L; IC50 (µg/mL), single-round pseudovirus neutralization [14]: > 50 µg/mL; IC50, single-round pseudovirus neutralization [27]: 6.02 mg/L; IC50, single-round pseudovirus neutralization [28]: 0.03 mg/L
4995_P16 (PGT-145) (antibody) | 0.081 | – | – | – | – | – | – | – | – | – | – | – | – | – | – | – | – | IC50 (µg/mL), pseudovirus neutralization [25]: > 50 µg/mL; IC50, pseudovirus neutralization [26]: 1.05 mg/L; IC50 (µg/mL), single-round pseudovirus neutralization [14]: 20.9 µg/mL; IC50, single-round pseudovirus neutralization [27]: 5.82 mg/L; IC50, single-round pseudovirus neutralization [28]: 0.174 mg/L
5114_A19 (PGT-128) (antibody) | – | – | – | – | – | – | – | 3 | 0.8 | 0.7 | 1.4 | 0.373 | 0.763 | > 50 | 0.083 | > 50 | > 50 | –
5123_A06 (PGT-125) (antibody) | – | > 50 | > 10 | 0.087 | > 50 | 0.004 | > 50 | 0.6 | 0.9 | 0.3 | 0.5 | – | – | – | – | – | – | –
5136_H01 (PGT-131) (antibody) | – | – | – | – | – | – | – | 0.9 | 0.5 | 0.6 | 1.1 | > 50 | > 50 | > 50 | > 50 | > 50 | > 50 | –
5141_B17 (PGT-126) (antibody) | – | > 50 | > 10 | 0.021 | > 50 | 0.006 | > 50 | 0.6 | 0.6 | 0.3 | 0.5 | – | – | – | – | – | – | –
5145_B14 (PGT-127) (antibody) | – | > 50 | – | 0.05 | > 50 | 0.01 | > 50 | 1.6 | 1.6 | 2.1 | 1.2 | – | – | – | – | – | – | –
5147_N06 (PGT-130) (antibody) | – | – | > 10 | – | – | – | – | 1.2 | 0.6 | 0.6 | 0.7 | 7.28 | > 50 | > 50 | > 50 | > 50 | > 50 | –
5329_C19 (PGT-136) (antibody) | – | – | – | – | – | – | – | – | – | – | – | > 50 | > 50 | > 50 | > 50 | > 50 | > 50 | –
5343_B08 (PGT-135) (antibody) | – | – | – | – | – | – | – | > 75 | 0.6 | 5 | 0.9 | > 50 | > 50 | > 50 | 1.29 | > 50 | > 50 | –
5345_I01 (PGT-137) (antibody) | – | – | – | – | – | – | – | – | – | – | – | > 50 | > 50 | > 50 | > 50 | > 50 | > 50 | –
PGV04 (antibody) | 0.019 | – | – | – | – | – | 2.48 | – | – | – | – | – | – | – | – | – | – | IC50 (µg/mL), pseudovirus neutralization [14]: 0.063 µg/mL

From patent US20240132578A1
